Experimental data from patent US20130217616.

What was measured:
[1] = molecular target: recombinant, full-length, non-tagged mannose-binding lectin (rMBL), P11226
[2] = molecular target: recombinant human Ficolin-3 (rFicolin-3), O75636
Chain of recombinant human Ficolin-3 (rFicolin-3), O75636 (O75636 24-299): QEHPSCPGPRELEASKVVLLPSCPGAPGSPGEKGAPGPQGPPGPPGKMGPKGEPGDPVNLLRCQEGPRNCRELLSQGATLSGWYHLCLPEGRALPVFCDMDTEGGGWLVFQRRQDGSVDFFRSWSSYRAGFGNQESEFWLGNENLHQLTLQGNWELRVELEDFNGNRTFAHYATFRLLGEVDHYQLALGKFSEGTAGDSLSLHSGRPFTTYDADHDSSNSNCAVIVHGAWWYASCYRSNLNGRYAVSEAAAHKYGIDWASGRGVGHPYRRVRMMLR

Chain of recombinant, full-length, non-tagged mannose-binding lectin (rMBL), P11226 (P11226 21-248): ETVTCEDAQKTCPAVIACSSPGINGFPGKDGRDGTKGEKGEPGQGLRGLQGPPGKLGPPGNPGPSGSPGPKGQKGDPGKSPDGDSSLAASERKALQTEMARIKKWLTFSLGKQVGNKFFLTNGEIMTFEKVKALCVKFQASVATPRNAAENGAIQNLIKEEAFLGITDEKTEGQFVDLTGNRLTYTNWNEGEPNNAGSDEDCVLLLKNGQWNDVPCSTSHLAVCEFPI

Row | Protein | activation of C3 and C4 [1] | C4 deposition (mannan/rMBL, MBL deficient serum) [1] | C4 deposition (AcBSA/rFicolin-3, Ficolin-3 deficient serum) [2]
1 | recombinant human MBL-Associated Serine Protease-3 (rMASP-3) (protein) HTVELNNMFGQIQSPGYPDSYPSDSEVTWNITVPDGFRIKLYFMHFNLESSYLCEYDYVKVETEDQVLATFCGRETTDTEQTPGQEVVLSPGSFMSITFRSDFSNEERFTGFDAHYMAVDVDECKEREDEELSCDHYCHNYIGGYYCSCRFGYILHTDNRTCRVECSDNLFTQRTGVITSPDFPNPYPKSSECLYTIELEEGFMVNLQFEDIFDIEDHPEVPCPYDYIKIKVGPKVLGPFCGEKAPEPISTQSHSVLILFHSDNSGENRGWRLSYRAAGNECPELQPPVHGKIEPSQAKYFFKDQVLVSCDTGYKVLKDNVEMDTFQIECLKDGTWSNKIPTCKIVDCRAPGELEHGLITFSTRNNLTTYKSEIKYSCQEPYYKMLNNNTGIYTCSAQGVWMNKVLGRSLPTCLPECGQPSRSLPSLVKRIIGGRNAEPGLFPWQALIVVEDTSRVPNDKWFGSGALLSASWILTAAHVLRSQRRDTTVIPVSKEHVTVYLGLHDVRDKSGAVNSSAARVVLHPDFNIQNYNHDIALVQLQEPVPLGPHVMPVCLPRLEPEGPAPHMLGLVAGWGISNPNVTVDEIISSGTRTLSDVLQYVKLPVVPHAECKTSYESRSGNYSVTENMFCAGYYEGGKDTCLGDSGGAFVIFDDLSQRWVVQGLVSWGGPEECGSKQVYGVYTKVSNYVDWVWEQMGLPQSVVEPQVER | MASP-3 were able to inhibit the activation of both the C3 and C4 complement proteins |  | 
2 | recombinant human MBL-Associated Serine Protease-2 (rMASP-2) (protein) TPLGPKWPEPVFGRLASPGFPGEYANDQERRWTLTAPPGYRLRLYFTHFDLELSHLCEYDFVKLSSGAKVLATLCGQESTDTERAPGKDTFYSLGSSLDITFRSDYSNEKPFTGFEAFYAAEDIDECQVAPGEAPTCDHHCHNHLGGFYCSCRAGYVLHRNKRTCSALCSGQVFTQRSGELSSPEYPRPYPKLSSCTYSISLEEGFSVILDFVESFDVETHPETLCPYDFLKIQTDREEHGPFCGKTLPHRIETKSNTVTITFVTDESGDHTGWKIHYTSTAQPCPYPMAPPNGHVSPVQAKYILKDSFSIFCETGYELLQGHLPLKSFTAVCQKDGSWDRPMPACSIVDCGPPDDLPSGRVEYITGPGVTTYKAVIQYSCEETFYTMKVNDGKYVCEADGFWTSSKGEKSLPVCEPVCGLSARTTGGRIYGGQKAKPGDFPWQVLILGGTTAAGALLYDNWVLTAAHAVYEQKHDASALDIRMGTLKRLSPHYTQAWSEAVFIHEGYTHDAGFDNDIALIKLNNKVVINSNITPICLPRKEAESFMRTDDIGTASGWGLTQRGFLARNLMYVDIPIVDHQKCTAAYEKPPYPRGSVTANMLCAGLESGGKDSCRGDSGGALVFLDSETERWFVGGIVSWGSMNCGEAGQYGVYTKVINYIPWIENIISDF | MASP-2 were able to strongly activate both the C3 and C4 complement proteins | Application of rMASP-2 resulted in a strong positive dose dependent enhancement of the C4 deposition via both the Ficolin-3 and MBL activation pathways | Application of rMASP-2 resulted in a strong positive dose dependent enhancement of the C4 deposition via both the Ficolin-3 and MBL activation pathways
3 | recombinant human MBL-Associated Serine Protease-1 (rMASP-1) (protein) HTVELNNMFGQIQSPGYPDSYPSDSEVTWNITVPDGFRIKLYFMHFNLESSYLCEYDYVKVETEDQVLATFCGRETTDTEQTPGQEVVLSPGSFMSITFRSDFSNEERFTGFDAHYMAVDVDECKEREDEELSCDHYCHNYIGGYYCSCRFGYILHTDNRTCRVECSDNLFTQRTGVITSPDFPNPYPKSSECLYTIELEEGFMVNLQFEDIFDIEDHPEVPCPYDYIKIKVGPKVLGPFCGEKAPEPISTQSHSVLILFHSDNSGENRGWRLSYRAAGNECPELQPPVHGKIEPSQAKYFFKDQVLVSCDTGYKVLKDNVEMDTFQIECLKDGTWSNKIPTCKIVDCRAPGELEHGLITFSTRNNLTTYKSEIKYSCQEPYYKMLNNNTGIYTCSAQGVWMNKVLGRSLPTCLPVCGLPKFSRKLMARIFNGRPAQKGTTPWIAMLSHLNGQPFCGGSLLGSSWIVTAAHCLHQSLDPEDPTLRDSDLLSPSDFKIILGKHWRLRSDENEQHLGVKHTTLHPQYDPNTFENDVALVELLESPVLNAFVMPICLPEGPQQEGAMVIVSGWGKQFLQRFPETLMEIEIPIVDHSTCQKAYAPLKKKVTRDMICAGEKEGGKDACAGDSGGPMVTLNRERGQWYLVGTVSWGDDCGKKDRYGVYSYIHHNKDWIQRVTGVRN | MASP-1 were able to activate both the C3 and C4 complement proteins |  | 
